Here are results for one molecule from patent publication US20260115302A1 (XILIO DEVELOPMENT, published 2026).

The assay addresses T1, CD25-Fc (UniProt P01589 22-240).
T1 construct: Analyte flowed over the immobilised constructs in SPR (16, 8, 4, 2, 1 nM); also called IL-2Ralpha-Fc; not shown: Fc part of the reagent
T1 sequence (looked up): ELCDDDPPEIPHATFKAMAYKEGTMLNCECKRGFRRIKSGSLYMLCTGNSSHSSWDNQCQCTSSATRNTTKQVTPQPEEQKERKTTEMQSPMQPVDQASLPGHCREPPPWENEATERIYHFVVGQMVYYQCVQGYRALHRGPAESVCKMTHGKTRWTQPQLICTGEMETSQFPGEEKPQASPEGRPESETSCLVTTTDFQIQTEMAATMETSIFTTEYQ
The assay can be described thus: SPR (Reichert 4Channel, 25 C): MMP-activated construct immobilised on the chip by amine coupling, CD25-Fc flowed over as analyte.

B1: AK168 after protease cleavage (Fc fusion)
chain: LYHPSGPAPTSSSTKKTQLQLEHLLLDLQMILNGINNYKNPKLTAMLTAKFAMPKKATELKHLQCLEEALKPLEEVLNLAQSKNFHLRPRDLISNINVIVLELKGSETTFMCEYADETATIVEFLNRWITFAQSIISTLT
notes: The fragments present on the SPR chip are not described
B1: the binding result was “no binding”.
